# In PMC7018016, “Superstructure formation by RodZ hexamers of Shigella sonnei maintains the rod shape of bacilli” (PLoS ONE, 2020):
# Several values for one entry are separate records, joined by “and”; a condition that tells them apart may be missing. Equal values may be shown once.
# What was measured:
# [1] = biological target: RodZ_(ΔKRRKKR) (S. sonnei) (UniProt Q3YZ36); test: native gel or EMSA; 3%–12% BN-PAGE (NativePAGE Novex Bis-Tris), CBB without SDS, loading buffer with mild detergents; 5 μl of each purified protein
# [2] = biological target: the molecule itself; test: as above
# [3] = biological target: the molecule itself; test: cross-linking + other: High-Mass MALDI-TOF MS; serial dilutions (1 mg/ml–19.53 μg/ml) in PBS, treated with K200 Stabilizer crosslinker, CovalX HM3 module, 0–1500 kDa; Complex Tracker software corrects for the mass of the crosslinker; monomer measured without crosslinker
Molecule,stoichiometry N [1],binding result [2],stoichiometry N [3],stoichiometry N [2]
RodZ_(ΔKRRKKR) (from UniProt Q3YZ36 1-337) (natural protein),6,–,–,–
"RodZ_(1–142) (domain or fragment, RodZ of Shigella sonnei, residues 1-142; not shown: His6, C-terminal, kept) MNTEATHDQNEALTTGARLRNAREQLGLSQQAVAERLCLKVSTVRDIEEDKAPADLASTFLRGYIRSYARLVHIPEEELLPGLEKQAPLRAAKVAPMQSFSLGKRRKKRDGWLMTFTWLVLFVVIGLSGAWWWQDHKAQQEE",–,binds,–,–
"RodZwt (wild-type RodZ of Shigella sonnei, his6-tagged) (natural protein, S. sonnei, UniProt Q3YZ36 1-337, looked up, RodZ of Shigella sonnei MS390, whole rodZ amplified with primers from the start codon to the last codon (337 residues); Cloned NdeI-XhoI into pET22b; predicted mass 36.83 kDa; The XhoI site of pET22b probably adds Leu-Glu before the his6 tag (surmise); also called his6-tagged RodZ; purified RodZwt; not shown: His6, C-terminal, kept) MNTEATHDQNEALTTGARLRNAREQLGLSQQAVAERLCLKVSTVRDIEEDKAPADLASTFLRGYIRSYARLVHIPEEELLPGLEKQAPLRAAKVAPMQSFSLGKRRKKRDGWLMTFTWLVLFVVIGLSGAWWWQDHKAQQEEITTMADQSSAELSSNSEQGQSVPLNTSTTTDPATTSTPPASVDTTATNTQTPAVTAPAPAVDPQQNAVVSPSQANVDTAATPVPTAATTPDGAAPLPTDQAGVTTPAADPNALVMNFTADCWLEVTDATGKKLFSGMQRKDGNLNLTGQAPYKLKIGAPAAVQIQYQGKPVDLSRFIRTNQVARLTLNAEQSPAQ",–,–,6.36 times and 6 times,~6
"RodZ_(50–337) (domain or fragment, RodZ of Shigella sonnei, residues 50-337; The forward primer adds a start methionine before D50; calculated mass 31.64 kDa; also called N-terminal deletion RodZ_(50-337); not shown: His6, C-terminal, kept) DKAPADLASTFLRGYIRSYARLVHIPEEELLPGLEKQAPLRAAKVAPMQSFSLGKRRKKRDGWLMTFTWLVLFVVIGLSGAWWWQDHKAQQEEITTMADQSSAELSSNSEQGQSVPLNTSTTTDPATTSTPPASVDTTATNTQTPAVTAPAPAVDPQQNAVVSPSQANVDTAATPVPTAATTPDGAAPLPTDQAGVTTPAADPNALVMNFTADCWLEVTDATGKKLFSGMQRKDGNLNLTGQAPYKLKIGAPAAVQIQYQGKPVDLSRFIRTNQVARLTLNAEQSPAQ",–,–,6.05 times and 6.22 times and 6.03 times,~2
